Numbering of substitutions follows the chain as printed. Names and notes keep the numbering of the source.
Substrate: Nc1ncnc2c1ncn2[C@@H]1O[C@H](COP(=O)(O)OP(=O)(O)OP(=O)(O)O)[C@@H](O)[C@H]1O
Assay: Km [ATP] by ADP-Glo lipid kinase assay with PIP2:PS substrate
Type: biochemical, Homo sapiens
Conditions: MgCl2

B1: p110β (Homo sapiens) (protein)
chain: MCFSFIMPPAMADILDIWAVDSQIASDGSIPVDFLLPTGIYIQLEVPREATISYIKQMLWKQVHNYPMFNLLMDIDSYMFACVNQTAVYEELEDETRRLCDVRPFLPVLKLVTRSCDPGEKLDSKIGVLIGKGLHEFDSLKDPEVNEFRRKMRKFSEEKILSLVGLSWMDWLKQTYPPEHEPSIPENLEDKLYGGKLIVAVHFENCQDVFSFQVSPNMNPIKVNELAIQKRLTIHGKEDEVSPYDYVLQVSGRVEYVFGDHPLIQFQYIRNCVMNRALPHFILVECCKIKKMYEQEMIAIEAAINRNSSNLPLPLPPKKTRIISHVWENNNPFQIVLVKGNKLNTEETVKVHVRAGLFHGTELLCKTIVSSEVSGKNDHIWNEPLEFDINICDLPRMARLCFAVYAVLDKVKTKKSTKTINPSKYQTIRKAGKVHYPVAWVNTMVFDFKGQLRTGDIILHSWSSFPDELEEMLNPMGTVQTNPYTENATALHVKFPENKKQPYYYPPFDKIIEKAAEIASSDSANVSSRGGKKFLPVLKEILDRDPLSQLCENEMDLIWTLRQDCREIFPQSLPKLLLSIKWNKLEDVAQLQALLQIWPKLPPREALELLDFNYPDQYVREYAVGCLRQMSDEELSQYLLQLVQVLKYEPFLDCALSRFLLERALGNRRIGQFLFWHLRSEVHIPAVSVQFGVILEAYCRGSVGHMKVLSKQVEALNKLKTLNSLIKLNAVKLNRAKGKEAMHTCLKQSAYREALSDLQSPLNPCVILSELYVEKCKYMDSKMKPLWLVYNNKVFGEDSVGVIFKNGDDLRQDMLTLQMLRLMDLLWKEAGLDLRMLPYGCLATGDRSGLIEVVSTSETIADIQLNSSNVAAAAAFNKDALLNWLKEYNSGDDLDRAIEEFTLSCAGYCVASYVLGIGDRHSDNIMVKKTGQLFHIDFGHILGNFKSKFGIKRERVPFILTYDFIHVIQQGKTGNTEKFGRFRQCCEDAYLILRRHGNLFITLFALMLTAGLPELTSVKDIQYLKDSLALGKSEEEALKQFKQKFDEALRESWTTKVNWMAHTVRKDYRS
notes: GST-His6-p110β+myc-p85α; with p85α (PIK3R1)
Km: 507.5 ± 66.3 µM | Vmax: 1.13 µmol/min/mg

B2: p110β^E1051K (Homo sapiens; E1051K) (protein)
chain: B1 chain with E1051K
notes: as for B1
Km: 314.3 ± 36.8 µM | Vmax: 1.4 µmol/min/mg

Source: publication PMC5740215, “Functional characterization of a novel somatic oncogenic mutation of PIK3CB” (Signal Transduction and Targeted Therapy, 2017)
